T1: SeMet-Rab32 1-225 (Q85L/V100M/Q153M/V158M/I192M) (UniProt Q13637 1-225, Q85L | V100M | Q153M | V158M | I192M, selenomethionine (SeMet protein))
T1 construct: Rab32 residues 1-225; also called SeMet-Rab32Q85L; source: E. coli B834, M9 media (seleno-methionine), purified
T1 sequence (looked up): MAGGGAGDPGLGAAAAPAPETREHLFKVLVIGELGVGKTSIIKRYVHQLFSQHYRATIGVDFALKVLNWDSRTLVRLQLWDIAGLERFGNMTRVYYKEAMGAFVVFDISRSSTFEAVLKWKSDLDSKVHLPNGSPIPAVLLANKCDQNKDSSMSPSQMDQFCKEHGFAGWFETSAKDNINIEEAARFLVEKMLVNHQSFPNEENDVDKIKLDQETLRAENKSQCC

B1: VARP fragment with the second Cys-rich motif, 4C2 (C711S/C715S/C717S/C720S), as used in ITC (domain or fragment)
chain: TEEDLEDAEDTVSAADPEFSHPLSQSPKSAPAQKRLAKVPASGLGVNVTSQDGSS
notes: VARP; source: E. coli, purified
B2: Rab32 1-225 (Q85L), GTP hydrolysis-defective mutant, GST removed (enzyme, UniProt Q13637 1-225, looked up)
chain: T1 sequence (looked up) with M100V, M153Q, M158V, M192I
notes: Rab32, residues 1-225; limits 1-225 are printed for the crystallised construct; also called Rab32(Q85L); Rab32Q85L
B3: VARP451-640His6 Y550A (domain or fragment, human, UniProt Q96NW4 451-640, looked up)
chain: PSVVTPFSRDDRGHTPLHVAAVCGQASLIDLLVSKGAMVNATDYHGATPLHLACQKGYQSVTLLLLHYKASAEVQDNNGNTPLHLACTYGHEDCVKALVAYDVESCRLDIGNEKGDTPLHIAARWGYQGVIETLLQNGASTEIQNRLKETPLKCALNSKILSVMEAYHLSFERRQKSSEAPVQSPQRSVD
notes: also called VARP(Y550A); source: E. coli Rosetta 2 pLysS, purified; not shown: His6, C-terminal, kept
B4: VARP451-640His6 (first ankyrin repeat domain, ANKRD1), wild type (domain or fragment, human, UniProt Q96NW4 451-640, looked up)
chain: B3 chain with A100Y
notes: VARP (VPS9-domain ankyrin repeat protein); also called VARP ANKRD1; VARP-ANKR domain 1; source: E. coli Rosetta 2 pLysS, purified (GSH-sepharose, PreScission cleavage, Ni-NTA agarose, Superdex 75); not shown: His6, C-terminal, kept
B5: VARP451-640His6 L513D (domain or fragment, human, UniProt Q96NW4 451-640, looked up)
chain: B3 chain with L63D, A100Y
notes: source: E. coli Rosetta 2 pLysS, purified; not shown: His6, C-terminal, kept
B6: VARP451-640His6 K546D (domain or fragment, human, UniProt Q96NW4 451-640, looked up)
chain: B3 chain with K96D, A100Y
notes: also called VARP(K546D); source: E. coli Rosetta 2 pLysS, purified; not shown: His6, C-terminal, kept

Settings in all cases: both partners purified
Assay [1] concerns the target VPS29, recombinant, as used in ITC (UniProt Q9UBQ0 1-182). The assay can be described thus: ITC; recombinant VARP Cys-rich motif fragments and VPS29; who was titrated is not told. On the technique in general: ITC needs no label: the signal is the heat of the interaction.
Assay [2] addresses T2, VARP fragment, residues 397-650 (human, UniProt Q96NW4 397-650).
T2 construct: VARP (VPS9-domain ankyrin repeat protein; 1,050 residues), residues 397-650, contains ANKRD1; source: E. coli Rosetta 2 pLysS, purified (GSH-sepharose, PreScission cleavage, Superdex 75)
The assay can be described thus: ITC; Nano ITC; VARP constructs at 60 μM in the cell at 4°C, Rab constructs at 300 μM titrated, 24 injections of 2 μl; 50 mM HEPES pH 7.4, 200 mM NaCl, 5 mM MgCl2, 1 mM TCEP.

The target of assay [3] is B2. Described as above.
The target of assay [4] is T1, SeMet-Rab32 1-225 …. Kind of assay: crystal structure; sitting drop vapor diffusion at 18°C, PEG 3350, 200 mM sodium citrate pH 8.0; molecular replacement.

Where a chain is given by its changes, count along the chain named. In names and notes the source's numbering stands.

T2 sequence (Q96NW4 397-650): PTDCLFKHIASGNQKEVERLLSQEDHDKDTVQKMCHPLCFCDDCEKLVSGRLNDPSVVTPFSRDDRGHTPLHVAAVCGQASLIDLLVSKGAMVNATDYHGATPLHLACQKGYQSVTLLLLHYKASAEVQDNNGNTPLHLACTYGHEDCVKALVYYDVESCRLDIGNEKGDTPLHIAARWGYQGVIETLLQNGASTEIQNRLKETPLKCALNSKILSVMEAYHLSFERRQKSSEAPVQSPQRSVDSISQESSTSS

Consider B1, for which the “fold decrease in binding against the wild-type fragment” value in assay [1] is roughly 20 fold.

For B2, binding in assay [2] was put at a Kd of 7 µM.

With B3, the dissociation constant Kd (in general, the concentration at which binding is half-saturated) in assay [3] is roughly 22 µM.

In the case of B4, the dissociation constant (Kd) in assay [3] was found to be 2.5 µM. The binding result in assay [4] is “binds”.

In the case of B5, the Kd in assay [3] is greater than 300 µM.

On to B6, for which the Kd in assay [3] was roughly 8 µM.
